Reference: the supplement of paper PMC9112550, “Optimization of the antimicrobial peptide Bac7 by deep mutational scanning” (BMC Biology, 2022)

System: Escherichia coli TOP10
Assay: shrunken log2 fold change of peptide-encoding DNA abundance (4.5 h post-induction vs induction); higher = less antimicrobial activity (less host growth inhibition)
Conditions: time post-induction: 4.5 h; library: site-saturation at positions 5, 18, 19, 20
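Note: peptides expressed intracellularly from a pBAD plasmid library in pooled LB shake-flask culture, induced with 0.3% L-arabinose, DNA abundance read by NGS, three biological replicates, DESeq2 with apeglm shrinkage.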

| Sequence | shrunken log2 fold change |
| --- | --- |
| RRIRHRPPRLPRPRPRPDWNPRP | -0.207 |
| RRIRHRPPRLPRPRPRPALCPRP | 0.174 |
| RRIRTRPPRLPRPRPRPIQFPRP | -0.0251 |
| RRIRDRPPRLPRPRPRPMKKPRP | 0.0162 |
| RRIRARPPRLPRPRPRPAVNPRP | 0.102 |
| RRIRCRPPRLPRPRPRPIQDPRP | -0.49 |
| RRIRRRPPRLPRPRPRPPRIPRP | 1.08 |
| RRIRSRPPRLPRPRPRPIAGPRP | -0.00669 |
| RRIRARPPRLPRPRPRPTMCPRP | -0.198 |
| RRIRCRPPRLPRPRPRPKMFPRP | -0.265 |
| RRIRVRPPRLPRPRPRPNGFPRP | -0.0486 |
| RRIRYRPPRLPRPRPRPSSLPRP | -0.0385 |
| RRIRNRPPRLPRPRPRPIHRPRP | 0.0891 |
| RRIRFRPPRLPRPRPRPRIYPRP | -0.326 |
| RRIRPRPPRLPRPRPRPHGAPRP | 0.641 |
| RRIRYRPPRLPRPRPRPSHKPRP | -1.57 |
| RRIRIRPPRLPRPRPRPCWEPRP | -0.0815 |
| RRIRCRPPRLPRPRPRPQDGPRP | 0.143 |
| RRIRVRPPRLPRPRPRPYYYPRP | -0.796 |
| RRIRERPPRLPRPRPRPEVKPRP | -0.0524 |
| RRIRMRPPRLPRPRPRPNCVPRP | -0.00674 |
| RRIRERPPRLPRPRPRPMRTPRP | 0.0487 |

| Sequence | shrunken log2 fold change |
| --- | --- |
| RRIRFRPPRLPRPRPRPHQIPRP | -0.387 |
| RRIRPRPPRLPRPRPRPEFCPRP | 0.18 |
| RRIRYRPPRLPRPRPRPWVKPRP | 0.0136 |
| RRIRVRPPRLPRPRPRPNQNPRP | -0.312 |
| RRIRSRPPRLPRPRPRPFFQPRP | -0.105 |
| RRIRRRPPRLPRPRPRPHTCPRP | 0.0847 |
| RRIRVRPPRLPRPRPRPDMMPRP | 0.0644 |
| RRIRIRPPRLPRPRPRPTTKPRP | -0.664 |
| RRIRYRPPRLPRPRPRPLQMPRP | -0.209 |
| RRIRMRPPRLPRPRPRPVTVPRP | 0.0436 |
| RRIRMRPPRLPRPRPRPIICPRP | -0.00127 |
| RRIRERPPRLPRPRPRPTPAPRP | 0.239 |
| RRIRLRPPRLPRPRPRPPGVPRP | 0.426 |
| RRIRLRPPRLPRPRPRPPHSPRP | 0.0872 |
| RRIRLRPPRLPRPRPRPAQQPRP | 0.0982 |
| RRIRPRPPRLPRPRPRPYNPPRP | -0.84 |
| RRIRMRPPRLPRPRPRPAGRPRP | 0.725 |
| RRIRSRPPRLPRPRPRPWNYPRP | 0.0149 |
| RRIRARPPRLPRPRPRPTICPRP | 0.144 |
| RRIRARPPRLPRPRPRPTNIPRP | -0.354 |
| RRIRLRPPRLPRPRPRPFKLPRP | -0.294 |
| RRIRYRPPRLPRPRPRPGHLPRP | -0.0798 |

| Sequence | shrunken log2 fold change |
| --- | --- |
| RRIRHRPPRLPRPRPRPVDRPRP | -0.0926 |
| RRIRCRPPRLPRPRPRPQQKPRP | 0.13 |
| RRIRMRPPRLPRPRPRPGTTPRP | 1.24 |
| RRIRFRPPRLPRPRPRPLTWPRP | -0.163 |
| RRIRGRPPRLPRPRPRPDINPRP | 1.68 |
| RRIRDRPPRLPRPRPRPDERPRP | 0.0336 |
| RRIRCRPPRLPRPRPRPKNDPRP | -0.048 |
| RRIRFRPPRLPRPRPRPARRPRP | 0.435 |
| RRIRKRPPRLPRPRPRPMNNPRP | -0.0152 |
| RRIRIRPPRLPRPRPRPMRRPRP | 0.0307 |
| RRIRRRPPRLPRPRPRPRSPPRP | 0.49 |
| RRIRNRPPRLPRPRPRPPKTPRP | -0.103 |
| RRIRNRPPRLPRPRPRPEAIPRP | 0.113 |
| RRIRFRPPRLPRPRPRPEEEPRP | 0.78 |
| RRIRKRPPRLPRPRPRPNISPRP | -0.102 |
| RRIRIRPPRLPRPRPRPWNNPRP | -0.89 |
| RRIRTRPPRLPRPRPRPWQKPRP | -0.1 |
| RRIRTRPPRLPRPRPRPQPVPRP | -0.0826 |
| RRIRMRPPRLPRPRPRPHSLPRP | -0.0589 |
| RRIRCRPPRLPRPRPRPMQCPRP | 0.0136 |
| RRIRGRPPRLPRPRPRPRGRPRP | 1.52 |
| RRIRQRPPRLPRPRPRPFCAPRP | 0.184 |

| Sequence | shrunken log2 fold change |
| --- | --- |
| RRIRFRPPRLPRPRPRPNKEPRP | 0.0307 |
| RRIRRRPPRLPRPRPRPHSQPRP | 0.0866 |
| RRIRYRPPRLPRPRPRPPVHPRP | -0.0526 |
| RRIRGRPPRLPRPRPRPDSSPRP | 0.217 |
| RRIRIRPPRLPRPRPRPMTRPRP | -0.0885 |
| RRIRRRPPRLPRPRPRPFDWPRP | 0.0636 |
| RRIRDRPPRLPRPRPRPWIPPRP | -0.0565 |
| RRIRCRPPRLPRPRPRPCHDPRP | -0.69 |
| RRIRGRPPRLPRPRPRPKFGPRP | 0.241 |
| RRIRHRPPRLPRPRPRPYVAPRP | -0.912 |
| RRIRERPPRLPRPRPRPHELPRP | -0.0556 |
| RRIRVRPPRLPRPRPRPMAIPRP | -0.11 |
| RRIRHRPPRLPRPRPRPNSNPRP | -1.16 |
| RRIRDRPPRLPRPRPRPSDSPRP | -0.0584 |
| RRIRPRPPRLPRPRPRPCSWPRP | 0.0726 |
| RRIRGRPPRLPRPRPRPDVHPRP | 0.867 |
| RRIRPRPPRLPRPRPRPKNSPRP | -0.144 |
| RRIRFRPPRLPRPRPRPWEYPRP | 0.0231 |
| RRIRERPPRLPRPRPRPADRPRP | -0.173 |
| RRIRVRPPRLPRPRPRPTSAPRP | 0.0866 |
| RRIRIRPPRLPRPRPRPIWLPRP | -0.11 |
| RRIRHRPPRLPRPRPRPPYAPRP | -0.00375 |

| Sequence | shrunken log2 fold change |
| --- | --- |
| RRIRMRPPRLPRPRPRPYFLPRP | -0.542 |
| RRIRFRPPRLPRPRPRPECMPRP | 0.0416 |
| RRIRCRPPRLPRPRPRPMDHPRP | -0.904 |
| RRIRCRPPRLPRPRPRPNNKPRP | -0.71 |
| RRIRCRPPRLPRPRPRPAPNPRP | 0.526 |
| RRIRSRPPRLPRPRPRPRWDPRP | 0.197 |
| RRIRNRPPRLPRPRPRPDHAPRP | -0.0118 |
| RRIRSRPPRLPRPRPRPETCPRP | 0.152 |
| RRIRIRPPRLPRPRPRPAKCPRP | -0.126 |
| RRIRARPPRLPRPRPRPMFDPRP | -0.101 |
| RRIRMRPPRLPRPRPRPMARPRP | 0.465 |
| RRIRRRPPRLPRPRPRPRNWPRP | 0.319 |
| RRIRLRPPRLPRPRPRPPDTPRP | 0.257 |
| RRIRIRPPRLPRPRPRPMNRPRP | -0.108 |
| RRIRSRPPRLPRPRPRPKPVPRP | 0.0648 |
| RRIRFRPPRLPRPRPRPDMTPRP | -0.0215 |
| RRIRVRPPRLPRPRPRPQNLPRP | -0.672 |
| RRIRERPPRLPRPRPRPRTNPRP | 0.00565 |
| RRIRPRPPRLPRPRPRPDIHPRP | -0.458 |
| RRIRARPPRLPRPRPRPVMQPRP | 0.305 |
| RRIRDRPPRLPRPRPRPWFWPRP | -0.0329 |
